Numbered stars: 1 amine (or outer) side, 2 acyl side, 3 side chain; on linkers, the order of the positions; unused ones are H or OH. Ends that are not written are not given here. * marks the point of attachment. C20 diacid = O=C(O)CCCCCCCCCCCCCCCCCCC(=O)*; C18 diacid = O=C(O)CCCCCCCCCCCCCCCCC(=O)*; γGlu = O=C(O)[C@H](CCC(=O)[*:2])N[*:1]
Molecular target: T1, human calcitonin receptor (human, UniProt P30988 25-474)
T1 construct: whole, on cells; also called hCT-R; hCTR
T1 sequence (looked up): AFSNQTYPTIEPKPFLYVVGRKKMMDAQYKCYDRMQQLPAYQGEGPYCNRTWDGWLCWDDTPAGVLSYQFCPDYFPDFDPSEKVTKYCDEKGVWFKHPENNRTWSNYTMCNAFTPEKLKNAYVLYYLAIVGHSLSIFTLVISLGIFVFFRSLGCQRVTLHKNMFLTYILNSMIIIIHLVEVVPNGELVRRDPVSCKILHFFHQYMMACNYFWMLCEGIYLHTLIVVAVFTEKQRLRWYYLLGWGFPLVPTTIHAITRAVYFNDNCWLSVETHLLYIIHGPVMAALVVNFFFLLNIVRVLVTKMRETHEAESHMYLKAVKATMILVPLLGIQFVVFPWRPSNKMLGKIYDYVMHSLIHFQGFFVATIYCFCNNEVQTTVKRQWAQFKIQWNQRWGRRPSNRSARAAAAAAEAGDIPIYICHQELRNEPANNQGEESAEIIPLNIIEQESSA
Assay: whole-cell competition vs 125I-human calcitonin (Assay VIIa)
How it was run: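 BHK tk'ts 13 cells stably co-expressing human calcitonin receptor and a CRE-luciferase reporter, seeded overnight at 37 °C. Bound tracer counted by scintillation after cold HBSS washes and NaOH/SDS lysis; IC₅₀ from one-site competition fit taken as receptor affinity.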

Binder	IC50 [nM]
{C20 diacid-γGlu}-ASQLSTAVLGRLSQRLHRLQTYPRTQTGSQTY-NH2 (SMILES CC(C)C[C@H](NC(=O)[C@H](CCCNC(=N)N)NC(=O)CNC(=O)[C@H](CC(C)C)NC(=O)[C@@H](NC(=O)[C@H](C)NC(=O)[C@@H](NC(=O)[C@H](CO)NC(=O)[C@H](CC(C)C)NC(=O)[C@H](CCC(N)=O)NC(=O)[C@H](CO)NC(=O)[C@H](C)NC(=O)CC[C@H](NC(=O)CCCCCCCCCCCCCCCCCCC(=O)O)C(=O)O)[C@@H](C)O)C(C)C)C(=O)N[C@@H](CO)C(=O)N[C@@H](CCC(N)=O)C(=O)N[C@@H](CCCNC(=N)N)C(=O)N[C@@H](CC(C)C)C(=O)N[C@@H](Cc1c[nH]cn1)C(=O)N[C@@H](CCCNC(=N)N)C(=O)N[C@@H](CC(C)C)C(=O)N[C@@H](CCC(N)=O)C(=O)N[C@H](C(=O)N[C@@H](Cc1ccc(O)cc1)C(=O)N1CCC[C@H]1C(=O)N[C@@H](CCCNC(=N)N)C(=O)N[C@H](C(=O)N[C@@H](CCC(N)=O)C(=O)N[C@H](C(=O)NCC(=O)N[C@@H](CO)C(=O)N[C@@H](CCC(N)=O)C(=O)N[C@H](C(=O)N[C@@H](Cc1ccc(O)cc1)C(N)=O)[C@@H](C)O)[C@@H](C)O)[C@@H](C)O)[C@@H](C)O, also called Ex. #132) [[N-terminal(C20 diacid-gGlu), des1, 4Q, 9V, 15Q, 16R, 19R, 21Q, 23Y, 27Q, 30S, 31Q, 32T, 33Y]mimylin]	1.55
EASELSTAALGRLSAELHELATLPRTETGPESP-OH (also called Ex. #135) [[C-terminal(-)]mimylin]	630

More lines, now with the values ahead:

IC50 [nM]	Binder
3.62	{C20 diacid-γGlu}-ELSGLSTLVLGRLSQELHELQTYPRTGTGSGTY-NH2 (SMILES CC(C)C[C@H](NC(=O)CNC(=O)[C@H](CO)NC(=O)[C@H](CC(C)C)NC(=O)[C@H](CCC(=O)O)NC(=O)CC[C@H](NC(=O)CCCCCCCCCCCCCCCCCCC(=O)O)C(=O)O)C(=O)N[C@@H](CO)C(=O)N[C@H](C(=O)N[C@@H](CC(C)C)C(=O)N[C@H](C(=O)N[C@@H](CC(C)C)C(=O)NCC(=O)N[C@@H](CCCNC(=N)N)C(=O)N[C@@H](CC(C)C)C(=O)N[C@@H](CO)C(=O)N[C@@H](CCC(N)=O)C(=O)N[C@@H](CCC(=O)O)C(=O)N[C@@H](CC(C)C)C(=O)N[C@@H](Cc1c[nH]cn1)C(=O)N[C@@H](CCC(=O)O)C(=O)N[C@@H](CC(C)C)C(=O)N[C@@H](CCC(N)=O)C(=O)N[C@H](C(=O)N[C@@H](Cc1ccc(O)cc1)C(=O)N1CCC[C@H]1C(=O)N[C@@H](CCCNC(=N)N)C(=O)N[C@H](C(=O)NCC(=O)N[C@H](C(=O)NCC(=O)N[C@@H](CO)C(=O)NCC(=O)N[C@H](C(=O)N[C@@H](Cc1ccc(O)cc1)C(N)=O)[C@@H](C)O)[C@@H](C)O)[C@@H](C)O)[C@@H](C)O)C(C)C)[C@@H](C)O) [[N-terminal(C20 diacid-gGlu), 2L, 4G, 8L, 9V, 15Q, 21Q, 23Y, 27G, 30S, 31G, 32T, 33Y]mimylin]
9.66	{C20 diacid-γGlu}-LSQLSTLVLGRLSQRLHRLQTYPRTQTGSQTY-NH2 (SMILES CC(C)C[C@H](NC(=O)CC[C@H](NC(=O)CCCCCCCCCCCCCCCCCCC(=O)O)C(=O)O)C(=O)N[C@@H](CO)C(=O)N[C@@H](CCC(N)=O)C(=O)N[C@@H](CC(C)C)C(=O)N[C@@H](CO)C(=O)N[C@H](C(=O)N[C@@H](CC(C)C)C(=O)N[C@H](C(=O)N[C@@H](CC(C)C)C(=O)NCC(=O)N[C@@H](CCCNC(=N)N)C(=O)N[C@@H](CC(C)C)C(=O)N[C@@H](CO)C(=O)N[C@@H](CCC(N)=O)C(=O)N[C@@H](CCCNC(=N)N)C(=O)N[C@@H](CC(C)C)C(=O)N[C@@H](Cc1c[nH]cn1)C(=O)N[C@@H](CCCNC(=N)N)C(=O)N[C@@H](CC(C)C)C(=O)N[C@@H](CCC(N)=O)C(=O)N[C@H](C(=O)N[C@@H](Cc1ccc(O)cc1)C(=O)N1CCC[C@H]1C(=O)N[C@@H](CCCNC(=N)N)C(=O)N[C@H](C(=O)N[C@@H](CCC(N)=O)C(=O)N[C@H](C(=O)NCC(=O)N[C@@H](CO)C(=O)N[C@@H](CCC(N)=O)C(=O)N[C@H](C(=O)N[C@@H](Cc1ccc(O)cc1)C(N)=O)[C@@H](C)O)[C@@H](C)O)[C@@H](C)O)[C@@H](C)O)C(C)C)[C@@H](C)O, also called Ex. #133)
42.4	{C18 diacid}-EASELSTAALGRLSAELHELATLPRTETGPESP-OH [[N-terminal(C18 diacid), C-terminal(-)]mimylin]
